Experimental data taken from PMC11869522, “Competitive displacement of lipoprotein lipase from heparan sulfate is orchestrated by a disordered acidic cluster in GPIHBP1” (Journal of Lipid Research, 2025).

B1: GPIHBP1^Cluster2-neutral: GPIHBP1 mutant with all Glu/Asp replaced by Gln/Asn at residues 19–30 (protein)
chain: QTQQEEEEEDEDHGPDDYNQQNQNQVQQQQTNRLPGGGSRVLLRCYTCKSLPRDERCNLTQNCSHGQTCTTLIAHGNTESGLLTTHSTWCTDSCQPITKTVEGTQVTMTCCQSSLCNVPPWQSSRVQDPTG
modifications: Tyr18 sulfation absent; one bi-antennary N-linked glycosylation; left off: uPAR domain III, N-terminal, cleaved
B2: GPIHBP1^Cluster1-neutral: GPIHBP1 mutant with all Glu/Asp replaced by Gln/Asn at residues 1–17 (protein)
chain: QTQQQQQQQNQNHGPNNYDEEDEDEVEEEETNRLPGGGSRVLLRCYTCKSLPRDERCNLTQNCSHGQTCTTLIAHGNTESGLLTTHSTWCTDSCQPITKTVEGTQVTMTCCQSSLCNVPPWQSSRVQDPTG
modifications: Tyr18 sulfation present in less than 40%; one bi-antennary N-linked glycosylation; left off: uPAR domain III, N-terminal, cleaved

Legend:
[1] = system: bLPL; assay: PCSK3 cleavage of LPL (SDS-PAGE densitometry); format: biochemical, bovine; settings: 20 μM bLPL, 25°C; for protection of LPL against ANGPTL4-induced cleavage by PCSK3 / protection of LPL against PCSK3 cleavage triggered by spontaneous unfolding: 0–240 min; for protection of LPL against PCSK3 cleavage triggered by spontaneous unfolding: 4 units PCSK3, without ANGPTL4, 25 μM GPIHBP1 variant
Protocol: To determine if charge-variants of GPIHBP1 confer distinct resistance to ANGPTL4-facilitated cleavage of LPL after Arg^324 by PCSK3 ([33]), we incubated purified bLPL (20 μM) with PCSK3 (4 units) for 0–240 min, either alone or in the presence of ANGPTL4 (2 μM) and/or GPIHBP1 (25 μM) at 25°C in 10 mM 2-(N-morpholino) ethane sulfonic acid (MES), 150 mM NaCl, 1 mM CaCl2, pH 7.0. We tested four different GPIHBP1 variants: GPIHBP1^1–131, GPIHBP1^Cluster1-neutral, GPIHBP1^Cluster2-neutral, and GPIHBP1^34–131 (LU domain only). PCSK3 cleavage was stopped by boiling in SDS-PAGE sample buffer (reduced and alkylated) and the degree of cleavage was assessed by SDS-PAGE using 12% Bis-Tris SDS-PAGE gels followed by densitometric scanning of the corresponding Coomassie blue–stained SDS-polyacrylamide gels.
Secretion of LPL by adipocytes is modulated in an autocrine manner by ANGPTL4. […] In the presence of endogenous ANGPTL4, a significant fraction of LPL was cleaved by PCSK3 in the trans-Golgi compartment. […] The presence of GPIHBP1 dramatically delayed PCSK3 cleavage of LPL ([33]). To assess the role of the acidic tail in GPIHBP1 on this delay, we incubated 20 μM bLPL with 4 units of PCSK3 either alone or in the presence of 2 μM ANGPTL4. We observed that the presence of sub-stoichiometric amounts of ANGPTL4 reduced the half-life of intact bLPL from 110 min to less than 5 min (Fig. 5A). […] Our results emphasized the essential role of GPIHBP1’s acidic tail in protecting LPL against ANGPTL4-induced cleavage by PCSK3.
Fig. 5 GPIHBP1 reduces ANGPTL4-facillitated PSCK3 cleavage of LPL. 20 μM bLPL was incubated with 4 units of PSCK3 for 0–240 min at 25°C and the extent of LPL cleavage after Arg^324 was assessed by densitometric scanning of Coomassie–blue stained polyacrylamide after SDS-PAGE of reduced and alkylated samples. A: PSCK3 cleavage of LPL is accelerated by the presence of 2 μM ANGPTL4—present at sub-stoichiometric amounts compared to bLPL (20 μM). 25 μM intact GPIHBP1, but not GPIHBP1^34–131 mitigates PSCK3 cleavage of LPL. B: Both GPIHBP1^Cluster1-neutral and GPIHBP1^Cluster2-neutral rescue LPL from cleavage by PSCK3 in the absence of ANGPTL4 and both are more efficient than GPIHBP1^34–131. C: in the presence of 2 μM ANGPTL4, 25 μM GPIHBP1^Cluster1-neutral protects LPL from PSCK3 cleavage more efficiently than the GPIHBP1^Cluster2-neutral, which indicates a more prominent role of acidic cluster 2 in protecting LPL from ANGPTL4-catalyzed unfolding and subsequent PSCK3 cleavage. Shown are the mean values (±SEM) for intact LPL relative to that present at time 0 min for 3–5 independent time-course experiments. Some curves appear in multiple panels to increase clarity.

[2] = system: mouse LPL; assay: Native PAGE binding to mouse LPL; settings: 4 µM LPL with 18 µM GPIHBP1, 30 min on ice; Coomassie staining
Protocol: Distinct impacts of disordered acidic clusters in GPIHBP1
To confirm interactions between puri fi ed human GPIHBP11–131, G P IH B P 1 Cluster1-neutral, or GPIHBP1 Cluster2-neutral with human, mouse, and bovine LPL, these protein pairs were incubated for 30 min on ice (4 µM LPL with 18 µM GPIHBP1) before they were analyzed by native PAGE. As th ese concentrations were well above t he K D of 0.2 nM for the wildtype LPL•GPIHBP1 interaction, LPL is saturated with GPIHBP1 in these experiments (1). […]
spect r a for the purified GPIHBP1 variants wer e r ecor ded at 25°C in Helman cuvettes (path- length of 1 mm) with a scan rate of 50 nm/ min c ove r i ng the range of 190- 250 nm, averaging three scans for each protein. Spectra for the pr ote i ns were compared after converting to molar ellipticity using the following equation, […] where, Mw is the molecular weight of the protein, c is the protein concentration in g/l, l is the pat h-length of the cuvette, Nr number of amino acid residues in the protein.
Figure S1 : Binding of GPIHBP1 charge mutants to LPL as assessed by Native PAGE. The electrophoretic mobility of GPIHBP1 variants alone or in presence of purified human LPL ( A), b ovine LPL (B), and murine LPL (C) was assessed by native PAGE followed by Coomassie blue staining. […]

[3] = 4 units PCSK3, 2 μM ANGPTL4, 25 μM GPIHBP1 variant

Molecule	protection of LPL against ANGPTL4-induced cleavage by PCSK3 [1, 3]	protection of LPL against PCSK3 cleavage triggered by spontaneous unfolding [1]	binding to mLPL as judged by native PAGE [2]	half-life of intact LPL ([1]; 4 units PCSK3, 2 μM ANGPTL4, 25 μM GPIHBP1 variant, pH 7.0, less than 5 min without GPIHBP1) [min]
B1	marginal protection	prevented that cleavage completely	bound	–
B2	significant protection	prevented that cleavage completely	bound	25
